What was measured:
[1] = target: large-conductance calcium-activated potassium (BKCa) channel alpha subunit (rat (endogenous in mesenteric arteries)) (UniProt Q62976)
[2] = target: large-conductance calcium-activated potassium (BKCa) channel alpha subunit (rat (endogenous in mesenteric arteries)) (UniProt Q62976); remark: listed apart in the source

inositol 1,4,5-trisphosphate receptor 1, P29994 1-2750 (natural protein), sequence (P29994 whole entry): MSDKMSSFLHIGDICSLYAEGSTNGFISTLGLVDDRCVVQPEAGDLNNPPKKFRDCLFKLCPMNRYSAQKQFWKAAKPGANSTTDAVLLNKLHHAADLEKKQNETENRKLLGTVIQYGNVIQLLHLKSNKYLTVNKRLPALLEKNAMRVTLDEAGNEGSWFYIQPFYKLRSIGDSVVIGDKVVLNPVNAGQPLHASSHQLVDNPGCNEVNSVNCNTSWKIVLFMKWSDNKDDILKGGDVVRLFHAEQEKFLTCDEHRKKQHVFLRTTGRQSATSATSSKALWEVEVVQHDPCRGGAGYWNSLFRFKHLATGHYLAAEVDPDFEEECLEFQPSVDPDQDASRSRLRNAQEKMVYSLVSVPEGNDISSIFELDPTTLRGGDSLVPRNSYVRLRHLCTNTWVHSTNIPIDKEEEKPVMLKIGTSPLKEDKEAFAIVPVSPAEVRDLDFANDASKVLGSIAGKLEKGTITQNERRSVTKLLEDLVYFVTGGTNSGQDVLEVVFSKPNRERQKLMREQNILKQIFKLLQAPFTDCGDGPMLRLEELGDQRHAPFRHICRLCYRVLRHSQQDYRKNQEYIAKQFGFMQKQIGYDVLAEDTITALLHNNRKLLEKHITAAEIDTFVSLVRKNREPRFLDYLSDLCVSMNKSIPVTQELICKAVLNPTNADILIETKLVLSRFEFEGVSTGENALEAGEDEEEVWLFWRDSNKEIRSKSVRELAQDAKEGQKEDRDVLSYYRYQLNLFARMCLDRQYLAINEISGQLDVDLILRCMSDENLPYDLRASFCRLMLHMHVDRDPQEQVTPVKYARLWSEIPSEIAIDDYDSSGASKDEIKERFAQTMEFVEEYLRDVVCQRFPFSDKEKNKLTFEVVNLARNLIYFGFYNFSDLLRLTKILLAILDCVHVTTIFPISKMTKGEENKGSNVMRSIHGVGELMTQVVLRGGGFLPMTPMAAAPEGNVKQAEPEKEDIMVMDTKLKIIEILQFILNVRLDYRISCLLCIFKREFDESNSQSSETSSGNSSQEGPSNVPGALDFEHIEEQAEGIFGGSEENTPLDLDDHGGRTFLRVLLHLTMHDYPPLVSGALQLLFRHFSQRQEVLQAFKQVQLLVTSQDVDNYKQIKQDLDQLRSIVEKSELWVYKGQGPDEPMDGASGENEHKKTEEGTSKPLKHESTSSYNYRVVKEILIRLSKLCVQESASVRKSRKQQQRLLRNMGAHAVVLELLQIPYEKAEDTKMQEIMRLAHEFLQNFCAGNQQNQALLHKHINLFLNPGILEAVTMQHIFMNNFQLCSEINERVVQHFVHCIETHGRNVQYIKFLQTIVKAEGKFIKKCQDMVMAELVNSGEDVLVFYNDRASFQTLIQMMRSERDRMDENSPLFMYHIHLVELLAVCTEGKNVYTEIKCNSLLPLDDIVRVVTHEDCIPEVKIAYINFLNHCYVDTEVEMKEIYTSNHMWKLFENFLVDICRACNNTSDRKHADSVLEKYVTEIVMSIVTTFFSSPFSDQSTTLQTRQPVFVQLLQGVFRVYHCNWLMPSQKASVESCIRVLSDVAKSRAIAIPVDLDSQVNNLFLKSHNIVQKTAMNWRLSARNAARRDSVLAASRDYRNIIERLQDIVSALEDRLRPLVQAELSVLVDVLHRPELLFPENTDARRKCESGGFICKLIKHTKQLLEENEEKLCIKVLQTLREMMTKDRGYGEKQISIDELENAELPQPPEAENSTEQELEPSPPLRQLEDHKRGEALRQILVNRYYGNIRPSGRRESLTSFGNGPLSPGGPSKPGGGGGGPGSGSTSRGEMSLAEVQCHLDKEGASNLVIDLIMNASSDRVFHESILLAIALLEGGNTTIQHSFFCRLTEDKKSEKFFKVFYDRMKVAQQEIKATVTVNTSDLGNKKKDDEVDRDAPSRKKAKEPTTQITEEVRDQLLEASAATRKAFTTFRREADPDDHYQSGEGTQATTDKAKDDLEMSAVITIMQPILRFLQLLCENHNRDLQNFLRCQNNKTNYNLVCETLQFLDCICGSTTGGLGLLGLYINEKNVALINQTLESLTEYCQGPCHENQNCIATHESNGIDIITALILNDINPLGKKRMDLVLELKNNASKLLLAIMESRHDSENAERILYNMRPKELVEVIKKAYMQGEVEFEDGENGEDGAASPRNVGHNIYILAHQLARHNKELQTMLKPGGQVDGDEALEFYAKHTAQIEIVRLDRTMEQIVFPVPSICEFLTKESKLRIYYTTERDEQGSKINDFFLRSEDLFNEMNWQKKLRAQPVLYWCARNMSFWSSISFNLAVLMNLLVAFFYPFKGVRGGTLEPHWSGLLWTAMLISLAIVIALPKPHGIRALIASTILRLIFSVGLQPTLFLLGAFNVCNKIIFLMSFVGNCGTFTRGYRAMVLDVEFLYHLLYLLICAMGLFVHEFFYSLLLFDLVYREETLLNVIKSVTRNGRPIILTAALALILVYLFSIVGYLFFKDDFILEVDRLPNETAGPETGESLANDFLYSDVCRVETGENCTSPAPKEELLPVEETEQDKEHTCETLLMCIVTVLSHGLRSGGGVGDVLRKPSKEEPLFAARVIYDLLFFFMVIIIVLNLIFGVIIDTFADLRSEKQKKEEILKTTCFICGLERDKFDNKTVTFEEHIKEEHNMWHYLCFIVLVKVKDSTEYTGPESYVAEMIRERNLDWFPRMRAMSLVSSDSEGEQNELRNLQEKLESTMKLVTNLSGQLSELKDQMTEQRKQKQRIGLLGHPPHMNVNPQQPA
large-conductance calcium-activated potassium (BKCa) channel alpha subunit (rat (endogenous in mesenteric arteries)), sequence (Q62976 whole entry): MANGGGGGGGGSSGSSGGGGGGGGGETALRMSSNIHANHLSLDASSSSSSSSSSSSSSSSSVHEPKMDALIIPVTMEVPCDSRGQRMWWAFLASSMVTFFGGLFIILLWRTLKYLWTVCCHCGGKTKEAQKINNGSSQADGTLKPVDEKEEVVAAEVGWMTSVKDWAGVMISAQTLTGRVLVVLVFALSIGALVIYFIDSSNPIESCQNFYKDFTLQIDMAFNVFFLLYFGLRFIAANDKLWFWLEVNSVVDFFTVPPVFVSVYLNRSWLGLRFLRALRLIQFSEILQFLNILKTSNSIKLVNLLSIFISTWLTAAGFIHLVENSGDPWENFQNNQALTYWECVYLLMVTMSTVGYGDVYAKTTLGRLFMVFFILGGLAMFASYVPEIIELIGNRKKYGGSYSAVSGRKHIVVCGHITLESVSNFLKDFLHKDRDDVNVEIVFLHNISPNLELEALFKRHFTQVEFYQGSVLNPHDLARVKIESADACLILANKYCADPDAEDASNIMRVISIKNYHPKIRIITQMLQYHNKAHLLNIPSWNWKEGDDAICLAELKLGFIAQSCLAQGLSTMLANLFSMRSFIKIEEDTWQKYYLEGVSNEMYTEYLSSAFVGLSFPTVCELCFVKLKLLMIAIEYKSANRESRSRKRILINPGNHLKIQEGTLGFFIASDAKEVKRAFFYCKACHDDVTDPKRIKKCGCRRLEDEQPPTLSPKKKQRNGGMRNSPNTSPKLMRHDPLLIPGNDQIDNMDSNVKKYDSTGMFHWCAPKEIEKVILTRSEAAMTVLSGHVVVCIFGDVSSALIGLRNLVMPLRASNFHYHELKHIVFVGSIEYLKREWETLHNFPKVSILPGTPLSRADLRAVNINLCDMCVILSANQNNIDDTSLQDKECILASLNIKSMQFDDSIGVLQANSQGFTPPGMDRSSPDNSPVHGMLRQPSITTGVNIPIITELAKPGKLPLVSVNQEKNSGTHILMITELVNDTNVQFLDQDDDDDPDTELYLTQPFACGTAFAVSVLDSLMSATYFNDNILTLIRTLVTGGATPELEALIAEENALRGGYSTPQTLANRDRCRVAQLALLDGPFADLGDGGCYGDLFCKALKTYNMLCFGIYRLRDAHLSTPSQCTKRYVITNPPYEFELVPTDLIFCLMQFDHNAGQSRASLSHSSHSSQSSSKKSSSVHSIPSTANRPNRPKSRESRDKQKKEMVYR

inositol 1,4,5-trisphosphate receptor 1, P29994 1-2750 (natural protein)
whole-cell BKCa current density at +60 mV in mesenteric VSMCs of WKY rats before and after the IP3R agonist Adenophostin A [1]: 142 pA/pF
whole-cell BKCa current density at +60 mV in mesenteric VSMCs of SHR before and after the IP3R agonist Adenophostin A [2]: 65.6 pA/pF

Source: article PMC10341547
